Consider 10 molecules from publication PMC6851490, “Target highlights in CASP13: Experimental target structures through the eyes of their authors” (Proteins, 2019).

Data set [1] has as its target T1, Bd2924 (Bdellovibrio bacteriovorus, UniProt Q6MJ59).
T1 construct: crystal structure residues 3 to 505; homo-tetramer (dimer of dimers)
T1 sequence (Q6MJ59 3-505): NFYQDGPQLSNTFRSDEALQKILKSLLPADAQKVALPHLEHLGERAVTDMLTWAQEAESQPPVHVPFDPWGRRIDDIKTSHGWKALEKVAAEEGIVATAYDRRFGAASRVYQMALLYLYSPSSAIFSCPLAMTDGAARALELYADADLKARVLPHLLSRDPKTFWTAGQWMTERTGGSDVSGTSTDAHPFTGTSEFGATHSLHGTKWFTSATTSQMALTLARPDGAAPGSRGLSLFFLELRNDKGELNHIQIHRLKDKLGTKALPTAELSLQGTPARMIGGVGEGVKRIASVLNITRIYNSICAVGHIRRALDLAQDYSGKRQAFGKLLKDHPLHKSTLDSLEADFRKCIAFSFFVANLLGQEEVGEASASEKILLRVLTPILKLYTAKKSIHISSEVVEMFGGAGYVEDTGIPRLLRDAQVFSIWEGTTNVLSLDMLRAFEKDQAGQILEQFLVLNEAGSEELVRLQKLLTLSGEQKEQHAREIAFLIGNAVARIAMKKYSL
The experiment in a line: X-ray crystal structure, […] Å. It counts as binding. Conditions: without C10-CoA; one FAD per monomer at the dimer interface.

In data set [2] the target is Afp7, tube initiator of the antifeeding prophage (AFP) (Serratia entomophila). Kind of data set: cryo-EM structure; needle of the AFP particle, threefold symmetric, 3.4 Å, PDB 6RBK.
The target of data set [3] is Afp8, needle protein of the antifeeding prophage (AFP) (Serratia entomophila). Described as above.
For data set [4], the target named is Afp16, cap protein of the antifeeding prophage (AFP) (Serratia entomophila). The experiment in a line: cryo-EM structure; apical end cap of the AFP particle in the extended state, sixfold symmetric, 3.3 Å, PDB 6RAP.
Data set [5] has as its target Bd2924, putative acyl-CoA dehydrogenase (ACAD) from B. bacteriovorus (B. bacteriovorus). Kind of data set: crystal structure; Bd2924 with FAD, with and without C10-CoA, PDB 6SD8 and 6SDA.
Data set [6] has the same target. The experiment in a line: SEC; Bd2924 in solution, size exclusion chromatography.
The target in data set [7] is CdiI^Kp342 immunity protein (Klebsiella pneumoniae 342). The experiment in a line: crystal structure; CdiA-CT•CdiI complex from K. pneumoniae 342, PDB 6CP9, 2.55 Å.
The target of data set [8] is Pentafunctional AROM complex from Chaetomium thermophilum (Chaetomium thermophilum). The experiment in a line: crystal structure; CtAROM, X-ray, 3.00 Å, no PDB id.
Data set [9] has the same target. The experiment in a line: not stated; CtAROM before crystallisation; homodimer of about 340 kDa; method not given.
Data set [10] deals with gp37 (distal part) of the Salmonella phage S16 long tail fiber (Salmonella phage S16). The experiment in a line: crystal structure; distal part of gp37 connected to gp38, phage S16, PDB 6F45, 1.70 Å.
Data set [11] deals with the molecule itself. Kind of data set: crystal structure; recombinant AxlA with cleaved xyloglucan oligosaccharide, PDB 6DRU, 2.7 Å; quaternary assembly examined with EPPIC.
Data set [12] deals with the molecule itself. The experiment in a line: crystal structure; MAJIN-TERB2 core complex, PDB 6GNX, X-ray, 2.90 Å.

As to `Cc1cc2nc3c(=O)[nH]c(=O)nc-3n(C[C@H](O)[C@H](O)[C@H](O)COP(=O)(O)OP(=O)(O)OC[C@H]3O[C@@H](n4cnc5c(N)ncnc54)[C@H](O)[C@@H]3O)c2cc1C` [FAD], the “X-ray crystal structure, 1.51 Å” value in data set [1] is listed as “A single FAD molecule binds per monomer in a crevice located at the dimer interface”.

The molecule “Afp7, tube initiator of the antifeeding prophage (AFP) (natural protein)” yielded a stoichiometry N in data set [2] of 6.

For the molecule “Afp8, needle protein of the antifeeding prophage (AFP) (natural protein)”, in [3], the stoichiometry N is 3.

In data set [4], “Afp16, cap protein of the antifeeding prophage (AFP) (natural protein)” showed a stoichiometry N of 6.

With “Bd2924, putative acyl-CoA dehydrogenase (ACAD) from B. bacteriovorus (enzyme)”, the stoichiometry N in data set [5] and in data set [6] was 4 throughout.

Consider “CdiI^Kp342 immunity protein (natural protein)”, for which the stoichiometry N in data set [7] was found to be 2.

In the case of “Pentafunctional AROM complex from Chaetomium thermophilum (enzyme)”, the stoichiometry N in data set [8] and in data set [9] was 2 each time.

Consider “gp37 (distal part) of the Salmonella phage S16 long tail fiber (domain or fragment)”, for which, in [10], the stoichiometry N came out at 3.

B1: α-xylosidase from Aspergillus niger (AxlA), glycoside hydrolase family 31 (enzyme, UniProt G3XMN9 19-736, looked up)
chain: TYFAPNSTGLRIQHGFETILIQPFGYDGFRVRAWPFRPPSGNEISFIYDPPIEGYEDTAHGMSYDTATTGTEPRTLRNGNIILRTTGWGGTTAGYRLSFYRVNDDGSETLLTNEYAPLKSLNPRYYYWPGPGAEFSAEFSFSATPDEQIYGTGTQQDHMINKKGSVIDMVNFNSYIPTPVFMSNKGYAFIWNMPAEGRMEFGTLRTRFTAASTTLVDYVIVAAQPGDYDTLQQRISALTGRAPAPPDFSLGYIQSKLRYENQTEVELLAQNFHDRNIPVSMIVIDYQSWAHQGDWALDPRLWPNVAQMSARVKNLTGAEMMASLWPSVADDSVNYAALQANGLLSATRDGPGTTDSWNGSYIRNYDSTNPSARKFLWSMLKKNYYDKGIKNFWIDQADGGALGEAYENNGQSTYIESIPFTLPNVNYAAGTQLSVGKLYPWAHQQAIEEGFRNATDTKEGSACDHVSLSRSGYIGSQRFCSMIWSGDTTSVWDTLAVQVASGLSAAATGWGWWTVDAGGFEVDSTVWWSGNIDTPEYRELYVRWLAWTTFLPFMRTHGSRTCYFQDAYTCANEPWSYGASNTPIIVSYIHLRYQLGAYLKSIFNQFHLTGRSIMRPLYMDFEKTDPKISQLVSSNSNYTTQQYMFGPRLLVSPVTLPNVTEWPVYLPQTGQNNTKPWTYWWTNETYAGGQVVKVPAPLQHIPVFHLGSREELLSGNVF
notes: AxlA, Aspergillus niger, UniProt G3XMN9; also called T1009; source: recombinant
Take B1: the “stoichiometry N” value in data set [11] came to 2.

B2: MAJIN (core of the human MAJIN-TERB2 complex) (domain or fragment)
chain: GSMSLKPFTYPFPETRFLHAGPNVYKFKIRYGKSIRGEEIENKEVITQELEDSVRVVLGNLDNLQPFATEHFIVFPYKSKWERVSHLKFKHGEIILIPYPFVFTLYVEMKWFHE
notes: MAJIN, human, the part in the MAJIN-TERB2 core complex; also called T0980s1; H0980 subunit A
For the molecule B2, in [12], the “stoichiometry N” value was 2.
